Read-outs that look alike come from different tables or passages of the source.

B2: ID-A62U (VHH)
VHH: DVQLVESGGGLVQAGGSLRLSCESSISTFSSDAMGWFRQAPGKELEFLAAIGWSGAVTHYSDSVKGRFTISRDNAKNTVYLQMNSLRAEDTGRYYCAEDYDTDVWQYWGQGTQVTVSS
notes: V7R-2E9 with E1D, R45L, Q65K, K87R, S88A; produced in S. cerevisiae
B3: human IL-7Rα (receptor)
chain: ESGYAQNGDLEDAELDDYSFSCYSQLEVNGSQHSLTCAFEDPDVNTTNLEFEICGALVEVKCLNFRKLQEIYFIETKKFLLIGKSNICVKVGEKSLTCKKIDLTTIVKPEAPFDLSVIYREGANDFVVTFNTSHLQKKYVKVLMHDVAYRQEKDENKWTHVNLSSTKLTLLQRKLQPAAMYEIKVRSIPDHYFKGFWSEWSPSYYFRTPEINNSSGEMD
notes: native receptor on human lymphocytes, monocytes and UC biopsy tissue in the cell assays; also called CD127
B4: ID-A59U (VHH)
VHH: DVQLVESGGGLVQAGGSLRLSCESSISTFSSDAMGWFRQAPGKEREFLAAIGWSGAVTHYSDSVKGRFTISRDNAKNTVYLQMNSLRAEDTGRYYCAEDYDTDVWQYWGQGTQVTVSS
notes: V7R-2E9 with E1D, Q65K, K87R, S88A; S. cerevisiae-expressed equivalent of ID-A40U
B5: cynomolgus monkey IL-7Rα (receptor)
chain: ESGYAQNGDLEDAELDDYSFSCYSQLEVNGSQHSLTCAFEDPDVNTTNLEFEICGALVEVKCLSFRKLQEIYFIETKKFLLIGKSNICVKVGGKSLTCKKIDLTTIVKPEAPFDLSVIYREGANDFVVTFNTSHLQKKYVKVLMHDVAYRQEKDENKWMHVNLSSTKLTLLQRNLQPEAMYEIKVRSIPDHYFKGFWSEWSPSYYFRTPEINNSPGEMD
notes: also called cynomolgus IL-7Rα

In experiment [1] the target is B3. Briefly: cell-based or functional assay.
Experiment [2] has as its target T1, recombinant human IL-7Rα-His6-Fc (human, UniProt P16871 21-239).
T1 construct: also called hIL-7R; not shown: His6 tag; Fc (captured by anti-human IgG Fc)
T1 chain: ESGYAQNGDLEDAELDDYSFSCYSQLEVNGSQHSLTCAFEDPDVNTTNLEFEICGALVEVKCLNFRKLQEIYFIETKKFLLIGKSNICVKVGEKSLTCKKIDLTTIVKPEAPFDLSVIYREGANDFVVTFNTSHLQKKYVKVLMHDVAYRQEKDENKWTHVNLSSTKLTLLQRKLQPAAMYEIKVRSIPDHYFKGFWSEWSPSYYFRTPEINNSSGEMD
Briefly: IL-7/IL-7R neutralisation ELISA; inhibition of IL-7 binding to IL-7R. (In general: In an ELISA, binding on a coated surface is turned into a signal by an enzyme label.)

In experiment [3] the target is T1, recombinant human IL-7Rα-His6-Fc. The experiment is described as above. The protocol: A 7-point dilution series of the clones was prepared in 1% BSA (at 2× the assay concentration) starting at 300 nM and using a 3.2 dilution factor. […] Block buffer alone was also added to each plate as blank. […] TMB reaction was stopped after 30 minutes. […]
The target is the same in experiment [4]. In words: IL-7/IL-7R neutralising ELISA; inhibition of IL-7 binding to IL-7R. The method, then:
(§1) A 7-point dilution series of the clones was prepared in 1% BSA (at 2× the assay concentration) starting at 300 nM and using a 3.2 dilution factor. […] Block buffer alone was also added to each plate as blank. […] TMB reaction was stopped after 30 minutes.

The target is the same in experiment [5]. Briefly: TSLP/TSLPR/IL-7R ELISA; inhibition of L-TSLP/TSLP-R complex binding to plate-coated IL-7Rα-His6-Fc. The protocol:
(§2) 96-well plates were coated with 0.25 μg/mL recombinant human IL-7Rα-His₆-Fc+ 5 μg/mL BSA and then blocked. […] Then the mixtures were incubated for 30 minutes to allow binding before adding to the IL-7Rα coated plates.

Experiment [6] shares this target. In words: IL-7/IL-7R neutralising ELISA; inhibition of IL-7 binding to IL-7R. The method, then: as §1
EC₅₀ values were generated in Graphpad prism using the ELISA signal blank corrected A450 data and ‘log(inhibitor) vs. response—Variable slope (four parameters)’ to fit curves and generate EC₅₀.

In experiment [7] the target is B3. In words: cell-based or functional assay.
Experiment [8] deals with T1, recombinant human IL-7Rα-His6-Fc. Briefly: IL-7/IL-7Rα-His6-Fc ELISA; inhibition of IL-7 binding to IL-7R.
The target is the same in experiment [9]. Briefly: IL-7/IL-7R neutralisation ELISA; inhibition of IL-7 binding to IL-7R.
Experiment [10] deals with B5. Briefly: competition ELISA: A62U premixed with serially diluted soluble IL-7R, then added to plate-coated human IL-7Rα-His6-Fc; bound ICVD detected [right panel (cross-reactivity A62U]. The protocol: (§3) 96-well plates were coated with 0.5 μg/mL recombinant human IL-7Rα His₆-Fc +5 μg/mL BSA and then blocked. 0.5 nM of ICVD was mixed 1:1 with the test compounds of choice serially diluted in 1% BSA, then incubated for 30 minutes to allow binding before adding to the IL-7Rα coated plates. Following 2 hours incubation, bound ICVD was detected with 50 uL/well 1/20000 anti-FLAG-HRP Goat antibody (GeneTex, GTX21238), and the level of neutralisation of ICVD-IL-7Rα binding by the test compounds was determined.

In experiment [11] the target is T1, recombinant human IL-7Rα-His6-Fc. In words: TSLP/TSLPR/IL-7R ELISA; inhibition of L-TSLP/TSLP-R complex binding to plate-coated IL-7Rα-His6-Fc. The method, then:
as §2
A subtraction was performed on the data set before graphing which normalised to the highest concentration of antibody tested (to overcome a high level of background on the plate).

In experiment [12] the target is T2, ID-A40U.
T2 construct: V7R-2E9 with Q65K, K87R, S88A; produced in E. coli; also called A40U-F/H; not shown: Flag-His6 tag
Briefly: competition ELISA: ID-A40U premixed with serially diluted soluble receptor, then added to plate-coated human IL-7Rα; bound ICVD detected [left panel]. The method, then:
as §3

Experiment [13] addresses T2, ID-A40U. In words: competition ELISA: ID-A40U premixed with serially diluted soluble IL-7R, then added to plate-coated human IL-7Rα-His6-Fc; bound ICVD detected. The protocol:
as §3

Experiment [14] deals with T2, ID-A40U. Briefly: competition ELISA: ID-A40U premixed with serially diluted soluble receptor, then added to plate-coated human IL-7Rα; bound ICVD detected [right panel]. The method, then:
as §3

The target in experiment [15] is B5. In words: competition ELISA: A59U premixed with serially diluted soluble IL-7R, then added to plate-coated human IL-7Rα-His6-Fc; bound ICVD detected [left panel (cross-reactivity A59U]. The protocol:
as §3

The target in the experiment “ID-A59U” is B4. The experiment is described as above. The method, then:
as §3

The experiment “ID-A62U” has as its target B2. Briefly: competition ELISA: A62U premixed with serially diluted soluble IL-7R, then added to plate-coated human IL-7Rα-His6-Fc; bound ICVD detected [right panel (cross-reactivity A62U]. The protocol:
as §3

B1: V7R-2E9 (VHH)
VHH: EVQLVESGGGLVQAGGSLRLSCESSISTFSSDAMGWFRQAPGKEREFLAAIGWSGAVTHYSDSVQGRFTISRDNAKNTVYLQMNSLKSEDTGRYYCAEDYDTDVWQYWGQGTQVTVSS
notes: llama ICVD, primary clone, expressed in E. coli TG1; parent of the ID-A series; not shown: C-terminal FLAG and 6xHis tags from vector pMEK222
What is called EC50 is the concentration that produces a half-maximal response. In the case of B1, the “IL-7 induced pSTAT5 in hPBMCs EC50” value with human IL-7Rα [1] and in the experiment with human IL-7Rα [7] was 2.86 nM in each case. Besides, the EC50 was 0.818 nM in [2]; 0.37 to 0.67 nM in experiment [3]; 0.818 nM in [4]; 0.32 nM in experiment [5]; 0.368 nM in [6]; 0.6 nM in [8].

As to B2, the EC50 was 0.4 nM in [9] and 0.74 nM in [11]. The binding result in the experiment with cynomolgus monkey IL-7Rα [10] is reported as “binds”.

In the case of B3, the results for the “IC50 (read off the curve)” value with ID-A40U [12], with ID-A40U [13] and with ID-A40U [14] were around 0.02 mg/L, around 0.03 mg/L and around 0.02 mg/L, respectively.

B4: the binding result with cynomolgus monkey IL-7Rα [15] is on record as “binds”.

Turning to B5, the “IC50 (read off the curve)” value in the experiment with ID-A59U was around 0.03 mg/L; with ID-A62U it was around 0.02 mg/L; with ID-A40U [13] it was around 0.01 mg/L.

(Values after patent US20220363769A1 (SORRISO PHARMACEUTICALS, published 2022).)
